In paper PMC12257531, “Chaperone-Mediated Regulation of Tau Phase Separation, Fibrillation, and Toxicity” (Journal of the American Chemical Society, 2025):

Biological target: Tau441 (recombinant full-length Tau protein), monomeric (UniProt P10636-8 1-441)
Assay: cell-based or functional assay

Sequence of Tau441 (recombinant full-length Tau protein), monomeric (P10636 other isoform, or with tags, fused parts or gaps): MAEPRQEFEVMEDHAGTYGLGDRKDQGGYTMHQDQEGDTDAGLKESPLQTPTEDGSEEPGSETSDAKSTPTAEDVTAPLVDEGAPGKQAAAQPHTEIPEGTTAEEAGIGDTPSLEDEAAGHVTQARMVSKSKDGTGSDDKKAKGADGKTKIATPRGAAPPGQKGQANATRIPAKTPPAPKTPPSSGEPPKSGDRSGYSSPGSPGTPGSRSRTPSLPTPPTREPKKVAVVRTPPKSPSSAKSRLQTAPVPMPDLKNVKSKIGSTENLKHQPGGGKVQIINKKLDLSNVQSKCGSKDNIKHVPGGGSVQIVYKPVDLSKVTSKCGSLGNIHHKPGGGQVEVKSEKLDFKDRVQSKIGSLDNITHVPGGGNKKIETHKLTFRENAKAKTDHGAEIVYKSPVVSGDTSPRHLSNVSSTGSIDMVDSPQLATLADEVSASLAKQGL

B1: Bri2 BRICHOS domain R221E (residues 113-231 of Bri2), oligomeric fraction (domain or fragment, human)
chain: GSQTIEENIKIFEEEEVEFISVPVPEFADSDPANIVHDFNKKLTAYLDLNLDKCYVIPLNTSIVMPPRNLLELLINIKAGTYLPQSYLIHEHMVITDRIENIDHLGFFIYELCHDKETYKL
- turbidity (absorbance at 350 nm) of 20 uM Tau441 with 8% PEG8000 and sub- to superstoichiometric Bri2 BRICHOS, relative to Tau441 droplets alone: 2 fold
